To fix the notation:
B1: Tyrosine-protein kinase BTK (Homo sapiens), Q06187 (parent)
chain: MAAVILESIFLKRSQQKKKTSPLNFKKRLFLLTVHKLSYYEYDFERGRRGSKKGSIDVEKITCVETVVPEKNPPPERQIPRRGEESSEMEQISIIERFPYPFQVVYDEGPLYVFSPTEELRKRWIHQLKNVIRYNSDLVQKYHPCFWIDGQYLCCSQTAKNAMGCQILENRNGSLKPGSSHRKTKKPLPPTPEEDQILKKPLPPEPAAAPVSTSELKKVVALYDYMPMNANDLQLRKGDEYFILEESNLPWWRARDKNGQEGYIPSNYVTEAEDSIEMYEWYSKHMTRSQAEQLLKQEGKEGGFIVRDSSKAGKYTVSVFAKSTGDPQGVIRHYVVCSTPQSQYYLAEKHLFSTIPELINYHQHNSAGLISRLKYPVSQQNKNAPSTAGLGYGSWEIDPKDLTFLKELGTGQFGVVKYGKWRGQYDVAIKMIKEGSMSEDEFIEEAKVMMNLSHEKLVQLYGVCTKQRPIFIITEYMANGCLLNYLREMRHRFQTQQLLEMCKDVCEAMEYLESKQFLHRDLAARNCLVNDQGVVKVSDFGLSRYVLDDEYTSSVGSKFPVRWSPPEVLMYSKFSSKSDIWAFGVLMWEIYSLGKMPYERFTNSETAEHIAQGLRLYRPHLASEKVYTIMYSCWHEKADERPTFKILLSNILDVMDEES
partner: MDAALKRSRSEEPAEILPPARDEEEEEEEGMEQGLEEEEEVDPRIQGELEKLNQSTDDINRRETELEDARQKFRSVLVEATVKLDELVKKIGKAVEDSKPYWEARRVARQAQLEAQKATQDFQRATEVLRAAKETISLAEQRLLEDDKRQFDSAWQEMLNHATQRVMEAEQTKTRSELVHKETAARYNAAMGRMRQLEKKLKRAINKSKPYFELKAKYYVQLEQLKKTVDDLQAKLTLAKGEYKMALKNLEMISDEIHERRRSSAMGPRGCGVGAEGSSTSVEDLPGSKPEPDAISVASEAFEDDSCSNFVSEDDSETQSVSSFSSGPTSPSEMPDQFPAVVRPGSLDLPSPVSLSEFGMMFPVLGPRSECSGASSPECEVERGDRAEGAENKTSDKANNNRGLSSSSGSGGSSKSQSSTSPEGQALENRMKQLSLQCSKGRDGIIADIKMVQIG

In the experiment the parent is B1. The conditions noted are these: with 3bp5_human SH3BP5, O60239.
For W251L;W252L, the “effect of a mutation on the interaction” value is “decreasing interaction”.

The record behind these values is IntAct's records for PubMed 9571151.
